Data on 1 molecule can be found in paper PMC6189472.

Experiment [1] concerns the target TCR/CD3 complex (human (endogenous in Jurkat)) (UniProt P07766). Description: recruitment to antibody-coated beads (confocal microscopy); CD6-GFP Jurkat T cells on fibronectin-coated coverslips with 4.5 um anti-CD3-coated (Dynal CD3) or fibronectin-coated beads; live cells at RT; CD6-GFP intensity at bead contact against the opposite side of the cell.
For experiment [2] the target is unchanged. Description: FRAP on micropatterned antibody spots; CD6-GFP Jurkat T cells on spots of 100, 10 or 1% anti-CD3 surrounded by fibronectin; 37 C; circular ROI of 2.1 um on spots and on surrounding fibronectin; single exponential fit.

Sequence of UniProt P07766 (P07766 whole entry, looked up, one chain of several): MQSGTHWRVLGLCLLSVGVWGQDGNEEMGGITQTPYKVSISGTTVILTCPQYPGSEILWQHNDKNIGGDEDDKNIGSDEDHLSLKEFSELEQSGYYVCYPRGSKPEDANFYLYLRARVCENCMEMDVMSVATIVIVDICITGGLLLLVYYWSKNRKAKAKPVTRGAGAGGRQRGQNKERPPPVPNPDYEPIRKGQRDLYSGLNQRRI

B1: CD6-GFP (receptor)
chain: HPSPAPPDQLNTSSAESELWEPGERLPVRLTNGSSSCSGTVEVRLEASWEPACGALWDSRAAEAVCRALGCGGAEAASQLAPPTPELPPPPAAGNTSVAANATLAGAPALLCSGAEWRLCEVVEHACRSDGRRARVTCAENRALRLVDGGGACAGRVEMLEHGEWGSVCDDTWDLEDAHVVCRQLGCGWAVQALPGLHFTPGRGPIHRDQVNCSGAEAYLWDCPGLPGQHYCGHKEDAGAVCSEHQSWRLTGGADRCEGQVEVHFRGVWNTVCDSEWYPSEAKVLCQSLGCGTAVERPKGLPHSLSGRMYYSCNGEELTLSNCSWRFNNSNLCSQSLAARVLCSASRSLHNLSTPEVPASVQTVTIESSVTVKIENKESRELMLLIPSIVLGILLLGSLIFIAFILLRIKGKYALPVMVNHQHLPTTIPAGSNSYQPVPITIPKEVFMLPIQVQAPPPEDSDSGSDSDYEHYDFSAQPPVALTTFYNSQRHRVTDEEVQQSRFQMPPLEEGLEELHASHIPTANPGHCITDPPSLGPQYHPRSNSESSTSSGEDYCNSPKSKLPPWNPQVFSSERSSFLEQPPNLELAGTQPAFSAGPPADDSSSTSSGEWYQNFQPPPQPPSEEQFGCPGSPSPQPDSTDNDDYDDISAA
Molecule B1 yielded a fold enrichment at αCD3-coated beads against fibronectin-coated beads in experiment [1] of 3 fold. In experiment [2], this molecule came in with a fraction of CD6-GFP immobilized on 10 and 100% αCD3 spots of 30%.
